Data published in paper PMC9728165, “Improving Catalytic Efficiency and Changing Substrate Spectrum for Asymmetric Biocatalytic Reductive Amination” (Journal of Microbiology and Biotechnology, 2019).

Tests used:
purified protein [1] = substrate: O=C(O)C(=O)Cc1ccccc1; test: purified protein; type: biochemical, Halalkalibacterium halodurans; settings: reductive amination, 500 mM ammonia, 100 microM NADH, glycine-KCl-KOH pH 10.4, 25°C
purified protein [2] = substrate: N[C@@H](Cc1ccccc1)C(=O)O; test: purified protein; type: biochemical, Halalkalibacterium halodurans; settings: oxidative deamination, 2 mM NAD+, 50 mM glycine-KCl-KOH pH 10.4, 25°C

| Protein | Km (purified protein [1]) | kcat (purified protein [1]) | Km (purified protein [2]) | kcat (purified protein [2]) |
| --- | --- | --- | --- | --- |
| PheDH (Halalkalibacterium halodurans C-125) (protein) MLTKTPTVTSTLDIFTEMAEHEQVLFCHDPSSGLRAIIAIHDTTLGPALGGCRMYPYQTTEDALRDVLRLSKGMTQKCAAADVDFGGGKAVIIGDPAKDKSANLFRAFGQFVESLNGRFYTGTDMGTTMEDFVHALKETNGIVGIPKEYGGSGDSSVPTAKGVINSLKAISQVVLKDKQFSGRTYAIQGLGKVGFKVAEELLKEGNDLYVSDLQESLPLRLQQLGQRLGRHVEILHGDEIYEAAADVFVPCAQGAILNDATIARLKVKAIAGAANNQLEAERHGQMLHDQGIWFAPDYIVNSGGLIQVADELYGSNEKRVLSKTNAIYDTILEIFHQAERHHITTLQAANQLCERRIRERARRNNFFVNRIRPKWNLRK | 0.337 ± 0.05 mM | 10.296 ± 0.0167 s⁻¹ | 6.88 ± 0.41 mM | 2.4847 ± 0.0035 s⁻¹ |
| PheDH (Halalkalibacterium halodurans C-125; N276L) (protein) MLTKTPTVTSTLDIFTEMAEHEQVLFCHDPSSGLRAIIAIHDTTLGPALGGCRMYPYQTTEDALRDVLRLSKGMTQKCAAADVDFGGGKAVIIGDPAKDKSANLFRAFGQFVESLNGRFYTGTDMGTTMEDFVHALKETNGIVGIPKEYGGSGDSSVPTAKGVINSLKAISQVVLKDKQFSGRTYAIQGLGKVGFKVAEELLKEGNDLYVSDLQESLPLRLQQLGQRLGRHVEILHGDEIYEAAADVFVPCAQGAILNDATIARLKVKAIAGAANLQLEAERHGQMLHDQGIWFAPDYIVNSGGLIQVADELYGSNEKRVLSKTNAIYDTILEIFHQAERHHITTLQAANQLCERRIRERARRNNFFVNRIRPKWNLRK | 1.05 ± 0.1 mM | 31.321 ± 0.0383 s⁻¹ | 8.71 ± 0.2 mM | 8.8435 ± 0.0687 s⁻¹ |
| PheDH (Halalkalibacterium halodurans C-125; E113D/N276L) (protein) MLTKTPTVTSTLDIFTEMAEHEQVLFCHDPSSGLRAIIAIHDTTLGPALGGCRMYPYQTTEDALRDVLRLSKGMTQKCAAADVDFGGGKAVIIGDPAKDKSANLFRAFGQFVDSLNGRFYTGTDMGTTMEDFVHALKETNGIVGIPKEYGGSGDSSVPTAKGVINSLKAISQVVLKDKQFSGRTYAIQGLGKVGFKVAEELLKEGNDLYVSDLQESLPLRLQQLGQRLGRHVEILHGDEIYEAAADVFVPCAQGAILNDATIARLKVKAIAGAANLQLEAERHGQMLHDQGIWFAPDYIVNSGGLIQVADELYGSNEKRVLSKTNAIYDTILEIFHQAERHHITTLQAANQLCERRIRERARRNNFFVNRIRPKWNLRK | 0.812 ± 0.01 mM | 39.0852 ± 0.0667 s⁻¹ | 5.14 ± 0.3 mM | 11.26 ± 0.055 s⁻¹ |
| PheDH (Halalkalibacterium halodurans C-125; E113D) (protein) MLTKTPTVTSTLDIFTEMAEHEQVLFCHDPSSGLRAIIAIHDTTLGPALGGCRMYPYQTTEDALRDVLRLSKGMTQKCAAADVDFGGGKAVIIGDPAKDKSANLFRAFGQFVDSLNGRFYTGTDMGTTMEDFVHALKETNGIVGIPKEYGGSGDSSVPTAKGVINSLKAISQVVLKDKQFSGRTYAIQGLGKVGFKVAEELLKEGNDLYVSDLQESLPLRLQQLGQRLGRHVEILHGDEIYEAAADVFVPCAQGAILNDATIARLKVKAIAGAANNQLEAERHGQMLHDQGIWFAPDYIVNSGGLIQVADELYGSNEKRVLSKTNAIYDTILEIFHQAERHHITTLQAANQLCERRIRERARRNNFFVNRIRPKWNLRK | 7.607 ± 0.2 mM | 25.1237 ± 0.0167 s⁻¹ | 8.28 ± 0.4 mM | 12.193 ± 0.005 s⁻¹ |
